# Test results taken from patent US9274110B2, “Diagnosis method of active tuberculosis” (priority 2011, dated 2016).
# B1: LipY: triacylglycerol hydrolase LipY (Rv3097c) of Mycobacterium tuberculosis, SEQ ID NO: 3 (protein, listed as Mycobacterium tuberculosis)
# chain: PEVVFIHGSVVSYVVALPEVMSAAATDVASIGSVVATASQGVAGATTTVLAAAEDEVSAAIAALFSGHGQDYQALSAQLAVFHERFVQALTGAAKGYAAAELANASLLQSEFASGIGNGFATIHQEIQRAPTALAAGFTQVPPFAAAQAGIFTGTPSGAAGFDIASLWPVKPLLSLSALETHFAIPNNPLLALIASDIPPLSWFLGNSPPPLLNSLLGQTVQYTTYDGMSVVQITPAHPTGEYVVAIHGGAFILPPSIFHWLNYSVTAYQTGATVQVPIYPLVQEGGTAGTVVPAMAGLISTQIAQHGVSNVSVVGDSAGGNLALAAAQYMVSQGNPVPSSMVLLSPWLDVGTWQISQAWAGNLAVNDPLVSPLYGSLNGLPPTYVYSGSLDPLAQQAVVLEHTAVVQGAPFSFVLAPWQIHDWILLTPWGLLSWPQINQQLGIAASDIHHHHHH
# Settings: cell wall of M. smegmatis overexpressing LipY vs control mycobacteria; 0.5 mM substrate, 40 min, 35° C.
molecule,measurement,value
B1,"Lipase activity: degradation of para-Nitrophenyl stearate, absorbance at 405 nm",demonstrating the lipase activity
